From patent US20250075249A1 (QUEENSLAND UNIVERSITY OF TECHNOLOGY, published 2025)

Legend:
Assay in all cases: cell-based or functional assay
[1] = biological target: Tre G104_P321 CaM chimera
[2] = biological target: FKBP-2CaM-Tre-FKBP fusion protein
FKBP-2CaM-BLA-FKBP = biological target: FKBP-2CaM-BLA-FKBP

Binder | EC50 (read off the curve) [1] [nM] | apparent Kd from titration with rapamycin (small molecule varied; 100 nM 2FKBP-Tre-2CaM, 200 nM FRB-CaM-BP; trehalase activity) [2] [nM] | apparent Kd from titration with rapamycin (small molecule varied; 25 nM BLA-2CaM-2FKBP, 100 nM FRB-CaM-BP; β-lactamase activity) (FKBP-2CaM-BLA-FKBP) [nM]
KRRWKKNFIAVSAANRFKKISSSGAL (peptide, UniProt P07313 578-603, looked up) [M13 calmodulin binding peptide] | ~60 |  | 
FRB-CaM-BP (fusion of FRB and a low affinity calmodulin binding peptide) (other) AHHHHHHSSGTRVAILWHEMWHEGLEEASRLYFGERNVKGMFEVLEPLHAMMERGPQTLKETSFNQAYGRDLMEAQEWCRKYMKSGNVKDLTQAWDLYYHVFRRISGGSGGSGSGSGGSGGKRRWKKNFIAVSAANR |  | 89 | 11
